Measured values as given in patent publication US7262177B2, “Conjugates of glycosylated/galactosylated peptide, bifunctional linker, and nucleotidic monomers/polymers, and related compositions and methods of use” (priority 2000, dated 2007).
Values joined by “and” are separate entries in the source; they are usually repeats but may differ in a detail not shown here. Equal values may be shown once. Read-outs that look alike come from different tables or passages of the source.

How the values were obtained:
[1] = system: alpha-fetoprotein (AFP); assay: Serum AFP levels in tumor-bearing nude mice; type: in vivo, human; settings: for level of AFP: 15 mg/kg weekly
Excerpt: Xenotransplanted tumors have been previously shown to be responsive to 5FU chemotherapy as assayed by direct physical measurement of the tumor (Houghton et al., Biochem. Pharmacol., 36, 1285-1289 (1987)), histological changes and biochemical measurements, such as alpha-fetoprotein (AFP) levels (Lemoine et al., Pathol. Biol. (Paris), 47, 903-910 (1999)) and thymidylate synthase levels (Peters et al., J. Clin Oncol., 12, 2035-2042 (1994)). The xenograft tumors in nude mice are a widely used model for tumor studies that allows for direct measurement of the growth of human tumors. Male CD-1 nude mice (6-8 weeks old, 20-22 g in weight) were used for these bioefficacy studies. An injection of 10^8 Hep G2 cells was made subcutaneously into the subcapsular region of each mouse. Mice were observed daily for tumor formation. After tumors emerged, they were measured twice a week in two dimensions with sliding calipers. When the tumors reached a weight of 100 mg in weight as determined by the formula: [(weight, mg)=(length (mm)×width (mm))^2/2], treatment was initiated (Geran et al., Cancer Chemother. Rep., 3, 51-61 (1972)). Initially, mice were treated with 10 mg/kg dose once/week for 8 weeks. Subsequently, separate cohorts of mice were treated with 15 mg/kg weekly for 8 weeks and finally 10 mg/kg twice weekly for 8 weeks. The impact of treatment upon tumor growth was judged by direct measurement as described above. In addition, tumor progression was tracked by serological measurements, such as AFP levels. AFP levels were assayed weekly following each injection. Blood was taken retro-orbitally from each mouse. AFP levels were assayed immunochemically, using kits supplied by Abbott Laboratories (Waukegan, Ill.) and based on the methods of Wang et al. (Cancer Res., 50, 869s-872s (1990)). Measurements of AFP levels were intended to complement direct physical measurement as an indicator of tumor progression. Generally, serum AFP levels behave as if they reflect tumor mass. […]

[2] = Stability of 1-mer conjugates in RPMI 1640+10% FCS (PAGE); type: in vitro ADME; settings: up to 8 hrs, PAGE analysis
Method: Initially, the stability of the two neoglycoconjugates was assessed in RPMI 1640+10% FCS. […] In terms of cellular uptake, the po-linked conjugate at a dose of 1 μM was taken up rapidly in a progressive manner by Hep G2 cells in vitro to the extent of 24.75 pmoles/10^6 cells at 480 min. The rate of cellular uptake was next analyzed with respect to the administered dose of the conjugate. […] This amount doubled within the next 30 min and peaked at 25 pmoles/million cells at 480 min. […] While the administration of 4 μM conjugate led to a linear increase of conjugate uptake with respect to time, the rate at which cellular uptake occurred upon the administration of 8 μM conjugate rose sharply at 120 min.

[3] = Serum stability of po 1-mer conjugate, HPLC method (b), column 2; type: in vitro ADME; settings: 37° C.; for Average Peak area / Trial Peak area: human serum
Method: Studies were carried out at physiological conditions. The analyses were accomplished using reversed-phase HPLC and PAGE methods. The raw data are presented in table format (Tables 1, 2 and 3). The serum half-life calculated is t1/2=1/k (0.693), derived from the [A]=[A0]e^−kt, where [A0] is the original amount of substrate, [A] is the measured substrate level, t is time (min), and k is the first-order rate constant.
(b) Reaction Conditions: 100 μl of human serum were added to 20 nmoles of HPLc purified po 1-mer Conjugate and incubated at 37° C. for allotted time periods (0 min, 15 min, 60 min, 120 min, 240 min). HPLC gradient: 100% Buffer A (0.05M NaxPO4 (pH 5.8) in 2% CH3CN) for 5 min, then 2% CH3CN to 50% CH3CN over the next 20 min. Column 2: flow 4.7 ml/min, Rainin Semi-Preparative C18 reversed-phase column (10 mm i.d.×250 mm L) (Table 2).

[4] = system: Hep G2 human hepatoma xenografts; assay: Bioefficacy against human hepatoma (Hep G2) xenografts in nude mice; type: in vivo, CD-1 nude mice
Excerpt: Xenotransplanted tumors have been previously shown to be responsive to 5FU chemotherapy as assayed by direct physical measurement of the tumor (Houghton et al., Biochem. Pharmacol., 36, 1285-1289 (1987)), histological changes and biochemical measurements, such as alpha-fetoprotein (AFP) levels (Lemoine et al., Pathol. Biol. (Paris), 47, 903-910 (1999)) and thymidylate synthase levels (Peters et al., J. Clin Oncol., 12, 2035-2042 (1994)). The xenograft tumors in nude mice are a widely used model for tumor studies that allows for direct measurement of the growth of human tumors. Male CD-1 nude mice (6-8 weeks old, 20-22 g in weight) were used for these bioefficacy studies. An injection of 10^8 Hep G2 cells was made subcutaneously into the subcapsular region of each mouse. Mice were observed daily for tumor formation. After tumors emerged, they were measured twice a week in two dimensions with sliding calipers. When the tumors reached a weight of 100 mg in weight as determined by the formula: [(weight, mg)=(length (mm)×width (mm))^2/2], treatment was initiated (Geran et al., Cancer Chemother. Rep., 3, 51-61 (1972)). Initially, mice were treated with 10 mg/kg dose once/week for 8 weeks. Subsequently, separate cohorts of mice were treated with 15 mg/kg weekly for 8 weeks and finally 10 mg/kg twice weekly for 8 weeks. The impact of treatment upon tumor growth was judged by direct measurement as described above. In addition, tumor progression was tracked by serological measurements, such as AFP levels. AFP levels were assayed weekly following each injection. Blood was taken retro-orbitally from each mouse. AFP levels were assayed immunochemically, using kits supplied by Abbott Laboratories (Waukegan, Ill.) and based on the methods of Wang et al. (Cancer Res., 50, 869s-872s (1990)). Measurements of AFP levels were intended to complement direct physical measurement as an indicator of tumor progression. Generally, serum AFP levels behave as if they reflect tumor mass. However, it should be noted that moderately raised AFP levels have been found in some patients with uncomplicated liver disease. Despite these false positives, serum AFP levels have been successfully used to monitor response to therapy (Johnson, J. Gastroent Hepatol., 14 (Suppl.), s32-s36 (1999)) especially in the tumor-bearing nude mice, where the human tumor is the only source of human AFP. Results from such assays provide an early indication of HCC potential before it is manifested as physical tumor growth. The data generated by the above experiments should aid in the derivation of starting doses for larger mammal testing and subsequent clinical studies.

[5] = 10 mg/kg twice weekly, after 3 weeks
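For % injected dose in LIVER in this document: male CD-1 mice given radiolabeled test agent intravenously, organs removed at each time point and dissolved, radioactivity per organ measured by scintillation counting with efficiency correction.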

CC(=O)N[C@H]1[C@H](OCCCCCCNC(=O)CC[C@H](NC(=O)CC[C@H](NC(=O)[C@H](Cc2ccc(O)cc2)NC(=O)C2CCC(CN3C(=O)CC(SCCCCCCOP(=O)(O)OC[C@H]4O[C@@H](n5cc(F)c(=O)[nH]c5=O)C[C@@H]4O)C3=O)CC2)C(=O)NCCCCCCO[C@@H]2O[C@H](CO)[C@H](O)[C@H](O)[C@H]2NC(C)=O)C(=O)NCCCCCCO[C@@H]2O[C@H](CO)[C@H](O)[C@H](O)[C@H]2NC(C)=O)O[C@H](CO)[C@H](O)[C@@H]1O (stereo partly shown) [po 1-mer, YEE(ahGalNAc)3-SMCC-poFU]
AFP measurements ([1]; 10 mg/kg twice weekly, week 6): below the limits of detection
level of AFP ([1]; after 3 weeks of treatment): less than 200 μg/ml
level of AFP ([1]; week 8): below the level of detection
stability in media containing 10% FCS [2]: stable
Average Peak area ([3]; 0 min): 13.57
Trial Peak area ([3]; 0 min, listed as po 1-mer Conjugate): 13.07 and 12.68 and 14.97
Average Peak area ([3]; 15 min): 14.86
Trial Peak area ([3]; 15 min): 14.86
Average Peak area ([3]; 60 min): 14.22
Trial Peak area ([3]; 60 min): 14.22
Average Peak area ([3]; 120 min): 11.96
Trial Peak area ([3]; 120 min): 11.96
Average Peak area ([3]; 240 min): 9.727
Trial Peak area ([3]; 240 min): 9.727
half-life at 200 µM ([3]; human, serum, HPLC (b), read-out: serum t1/2): 6.78 h
% injected dose in LIVER (15 MIN after tail vein i.v.): Fifty-seven
% injected dose in LIVER (60 MIN after tail vein i.v.): 25%
% injected dose in LIVER (480 MIN after tail vein i.v.): virtually no
body weight [4, 5]: moderate reduction in body weight
tumor progression [4, 5]: significant reduction in tumor progression
tumors ([4]; 10 mg/kg twice weekly, after 6 weeks): beyond detection
effect on tumor growth ([4]; 10 mg/kg weekly for 8 weeks): mild inhibition of tumor growth
histological analysis of tumors ([4]; 10 mg/kg weekly, after 8 weeks): reduced mitotic index and increased amount of necrotic tissue
average tumor weight ([4]; 10 mg/kg weekly, at 8 weeks (saline control about 15 g)): about 7 g
body weight (clinical toxicity) ([4]; 15 mg/kg weekly): steady weight gain equivalent to that of a non-tumor bearing mice
tumor burden ([4]; 15 mg/kg weekly, after 2 additional injections (7)): tumor burden was eradicated in one mouse and the tumor size was reduced in the others
tumor progression ([4]; 15 mg/kg weekly, after 5 injections): almost static
histological analysis of tumor ([4]; 15 mg/kg weekly, after treatment): very low mitotic index and extensive necrosis
